# From paper PMC6007550 (Nucleic Acids Research, 2018)
# Biological target: the molecule itself
# Experiment: crystal structure
row,Protein,stoichiometry N
1,"Sin R54E/I113V catalytic domain (residues 1-128) (domain or fragment, UniProt P20384 1-128, looked up, selenomethionine in place of methionine) MIIGYARVSSLDQNLERQLENLKTFGAEKIFTEKQSGKSIENRPILQKALNFVEMGDRFIVESIDRLGRNYNEVIHTVNYLKDKEVQLMITSLPMMNEVIGNPLLDKFMKDLVIQILAMVSEQERNES",4
2,"Sin R54E/I100T catalytic domain (residues 1-128) (domain or fragment, UniProt P20384 1-128, looked up, selenomethionine in place of methionine) MIIGYARVSSLDQNLERQLENLKTFGAEKIFTEKQSGKSIENRPILQKALNFVEMGDRFIVESIDRLGRNYNEVIHTVNYLKDKEVQLMITSLPMMNEVTGNPLLDKFMKDLIIQILAMVSEQERNES",4
3,"Sin R54E/I100T/Q115R catalytic domain (residues 1-128) (domain or fragment, UniProt P20384 1-128, looked up, selenomethionine in place of methionine) MIIGYARVSSLDQNLERQLENLKTFGAEKIFTEKQSGKSIENRPILQKALNFVEMGDRFIVESIDRLGRNYNEVIHTVNYLKDKEVQLMITSLPMMNEVTGNPLLDKFMKDLIIRILAMVSEQERNES",4
4,"Sin R54E/T77I/I100T/Q115R catalytic domain (residues 1-128) (domain or fragment, UniProt P20384 1-128, looked up, selenomethionine in place of methionine) MIIGYARVSSLDQNLERQLENLKTFGAEKIFTEKQSGKSIENRPILQKALNFVEMGDRFIVESIDRLGRNYNEVIHIVNYLKDKEVQLMITSLPMMNEVTGNPLLDKFMKDLIIRILAMVSEQERNES",4
